# Experimental data taken from patent publication US10052415B2, “Tropoelastin for promoting endothelial cell adhesion or migration” (University of Utah Research Foundation, priority 2005, dated 2018).
# “Also recorded” adds a separate entry of the source.
# B1: tropoelastin: recombinant human tropoelastin lacking native signal sequence, 10× His tag and Factor Xa site on N-terminus, 706 amino acid residues (SEQ ID NO: 4) (protein, listed as Homo sapiens)
# chain: MGHHHHHHHHHHSSGGIEGRGGVPGAIPGGVPGGVFYPGAGLGALGGGALGPGGKPLKPVPGGLAGAGLGAGLGAFPAVTFPGALVPGGVADAAAAYKAAKAGAGLGGVPGVGGLGVSAGAVVPQPGAGVKPGKVPGVGLPGVYPGGVLPGARFPGVGVLPGVPTGAGVKPKAPGVGGAFAGIPGVGPFGGPQPGVPLGYPIKAPKLPGGYGLPYTTGKLPYGYGPGGVAGAAGKAGYPTGTGVGPQAAAAAAAKAAAKFGAGAAGVLPGVGGAGVPGVPGAIPGIGGIAGVGTPAAAAAAAAAAKAAKYGAAAGLVPGGPGFGPGVVGVPGAGVPGVGVPGAGIPVVPGAGIPGAAVPGVVSPEAAAKAAAKAAKYGARPGVGVGGIPTYGVGAGGFPGFGVGVGGIPGVAGVPGVGGVPGVGGVPGVGISPEAQAAAAAKAAKYGVGTPAAAAAKAAAKAAQFALLNLAGLVPGVGVAPGVGVAPGVGVAPGVGLAPGVGVAPGVGVAPGVGVAPGIGPGGVAAAAKSAAKVAAKAQLRAAAGLGAGIPGLGVGVGVPGLGVGAGVPGLGVGAGVPGFGAVPGALAAAKAAKYGAAVPGVLGGLGALGGVGIPGGVVGAGPAAAAAAAKAAAKAAQFGLVGAAGLGGLGVGGLGVPGVGGLGGIPPAAAAKAAKYGVAARPGFGLSPIFPGGACLGKACGRKRK
# Columns and labels:
# [1] = tested on: endothelial progenitor cells; test: Adhesion assay on coated stainless steel disks, endothelial progenitor cells; type: cell-based, human
# Protocol: We conducted experiments to assess whether tropoelastin promoted the adhesion of endothelial progenitor cells. Tropoelastin was covalently conjugated to a stainless steel disk approximately 6 mm in diameter. As a control, anti-CD34 antibody (known to promote endothelial cell adhesion) was covalently conjugated to similar stainless steel disks. Endothelial progenitor cells were cultured with these coated disks, and adhesion of the cells to the coated disks was assayed.
# (§1) Adhesion assays on 6 mm stainless steel disks (Orbus Medical Technologies, Ft Lauderdale, Fla.) pre-coated with anti-CD34 antibody, tropoelastin, coating vehicle, or uncoated metal were performed in a similar fashion as described above, with the following modifications: 48-well plates were used to hold the disks during the assay period to facilitate manipulation of the disks and twice the volume of cell suspension was applied (200 μl/well). Exemplary amounts of total protein covalently attached to each disk were approximately 100 micrograms. Post-adhesion, the wells were washed twice in dPBS, using a swirling motion to dislodge non-specifically adhered cells. […]
# [2] = tested on: human embryonic kidney cells (HEK 293); test: Cell adhesion assay on coated culture plates, HEK 293 cells; type: cell-based; settings: culture plates coated with 10 ug/ml protein; 0.1% BSA control
# Protocol: (§2) Cells were plated on culture plates coated with either 0.1% BSA (as a control), 10 ug/ml fibronectin (FN), or 10 ug/ml recombinant tropoelastin, and assayed for adherence to the coated substrate.
# (§3) 96-well plates were coated in duplicate overnight at 4° C. with 10 μg/ml collagen, fibronectin, tropoelastin, or 0.1% bovine serum albumin (BSA). Cells were harvested with 0.25% trypsin/1 mM EDTA, washed three times in adhesion buffer (0.5% BSA in basal medium), suspended at a working density of 5×10^5/ml in adhesion buffer, and then allowed to recover for 1 h at 37° C. (5% CO2). For integrin-blocking assays, 25 μg/ml anti-integrin antibodies (Chemicon, Temecula, Calif.) or control IgG (Jackson ImmunoResearch Laboratories, Inc, West Grove, Pa.) were added to the cell suspension during the recovery period. During the cell recovery, the coated 96-well plates were washed twice in dPBS and blocked for 1 h at 25° C. in 5.0% BSA (dPBS). The blocking solution was removed, and the wells were washed twice in dPBS. Recovered cells were added to the coated wells in a volume of 100 μl per well and placed at 37° C. for 30 minutes (5% CO2). […] Readings represent the number of adherent cells/well (average six high powered 100× fields, three taken from each of two separate wells).
# [3] = tested on: A2058 human melanoma cells; test: Cell adhesion assay, A2058 cells; type: cell-based
# Protocol: A2058 cells were assayed for adherence to substrates coated with BSA (control), fibronectin, tropoelastin, or a bioactive fragment of tropoelastin corresponding to a single repeat of the hexameric sequence VGVAPG (SEQ ID No. 5). In comparison to adherence to BSA, A2058 cells adhered to substrates coated with fibronectin tropoelastin, or a bioactive fragment of tropoelastin.
# (§4) Cells were harvested with 0.25% trypsin/1 mM EDTA, washed three times in adhesion buffer (0.5% BSA in basal medium), suspended at a working density of 5×10^5/ml in adhesion buffer, and then allowed to recover for 1 h at 37° C. (5% CO2). For integrin-blocking assays, 25 μg/ml anti-integrin antibodies (Chemicon, Temecula, Calif.) or control IgG (Jackson ImmunoResearch Laboratories, Inc, West Grove, Pa.) were added to the cell suspension during the recovery period. During the cell recovery, the coated 96-well plates were washed twice in dPBS and blocked for 1 h at 25° C. in 5.0% BSA (dPBS). The blocking solution was removed, and the wells were washed twice in dPBS. Recovered cells were added to the coated wells in a volume of 100 μl per well and placed at 37° C. for 30 minutes (5% CO2). Following this incubation, the assay plate was inverted and assay wells were washed twice with 100 μl dPBS to remove non-specifically adhered cells. The wells were then fixed in Zamboni fixative, stained with Gill 1 hematoxylin, and overlayed with 80% glycerol. The assay was imaged at 100× magnification, capturing 3 random fields/well on a Zeiss Axiovert 200 inverted microscope equipped with a Zeiss Axiocam digital camera. Readings represent the number of adherent cells/well (average six high powered 100× fields, three taken from each of two separate wells).
# CHO cells = test: Cell adhesion assay on coated culture plates, CHO cells; type: cell-based; settings: culture plates coated with 10 ug/ml protein; 0.1% BSA control
# Protocol: as §2, §3
# [4] = tested on: human aortic endothelial cells (HuAEC); test: Cell adhesion assay on coated culture plates, HuAEC; type: cell-based
# Protocol: as §2
# as §4, with “96-well plates were coated in duplicate overnight at 4° C. with 10 μg/ml collagen, fibronectin, tropoelastin, or 0.1% bovine serum albumin (BSA). Cells” for “Cells”
# [5] = tested on: endothelial progenitor cells; test: Cell spreading on coated stainless steel disks (phalloidin/DAPI staining); type: cell-based, human; settings: Triton X-100 permeabilized, phalloidin and DAPI staining
# From the text: We also examined the appearance of the adherent endothelial cells.
# Cell spreading was examined by permeabilizing the endothelial cells that had adhered to the coated metal surfaces with Triton X-100 and staining with phalloidin to highlight the actin cytoskeleton and DAPI to mark cell nuclei. […] Thus, stainless steel surfaces coated with either tropoelastin or anti-CD34 antibody would likely endothelialize more rapidly than would similar bare metal surfaces when intravascularly placed.
# as §1
molecule,measurement,setting,value
B1,adhesion of endothelial progenitor cells to coated stainless steel disks,"[1]; FIG. 7, protein covalently conjugated to 6 mm disk",promoted adhesion of human endothelial cells to the metal device
same,cell adhesion compared to polysaccharide-coated control disks or to bare metal disks,[1]; coated metal disks,significant increase in cell adhesion
same,adhesion of HEK 293 cells to the coated substrate,[2],do not adhere to tropoelastin
same,level of A2058 adhesion relative to fibronectin,[3]; 50 μg/ml of tropoelastin,similarly to 10 ug/ml of fibronectin
same,dose dependence of A2058 adhesion,[3]; FIG. 4,dose dependent
same,adhesion of A2058 cells in comparison to BSA,"[3]; FIG. 4, coated substrates, peptide 10 μM",adhered
same,adhesion of CHO cells to the coated substrate,CHO cells,do not adhere to tropoelastin
same,"HuAEC adhesion, number of cells bound/well, relative to other coats","[4]; FIG. 2, coated wells",comparable to that observed with fibronectin or collagen
same,adhesion of HuAEC to the coated substrate,"[4]; culture plates coated with 10 ug/ml protein, 0.1% BSA control",adhered to tropoelastin
same,spreading of adherent cells across the surface of the coated disk,[5],promoted spreading of the adherent cells across the surface of the device; also recorded: well spread cytoplasm and an organized actin cytoskeleton
